From US20050084489A1, “Methods of preventing or treating disorders by administering and integrin alphanubeta3 antagonist in combination with an HMG-CoA reductase inhibitor or a bisphosphonate” (priority 2002, published 2005)

How the values were obtained:
mouse integrin αVβ3 = target: T1, mouse integrin αVβ3 (Mus musculus, UniProt O54890); assay: Antibody binding to wild type mouse integrin αVβ3
T1 sequence (O54890 26-787): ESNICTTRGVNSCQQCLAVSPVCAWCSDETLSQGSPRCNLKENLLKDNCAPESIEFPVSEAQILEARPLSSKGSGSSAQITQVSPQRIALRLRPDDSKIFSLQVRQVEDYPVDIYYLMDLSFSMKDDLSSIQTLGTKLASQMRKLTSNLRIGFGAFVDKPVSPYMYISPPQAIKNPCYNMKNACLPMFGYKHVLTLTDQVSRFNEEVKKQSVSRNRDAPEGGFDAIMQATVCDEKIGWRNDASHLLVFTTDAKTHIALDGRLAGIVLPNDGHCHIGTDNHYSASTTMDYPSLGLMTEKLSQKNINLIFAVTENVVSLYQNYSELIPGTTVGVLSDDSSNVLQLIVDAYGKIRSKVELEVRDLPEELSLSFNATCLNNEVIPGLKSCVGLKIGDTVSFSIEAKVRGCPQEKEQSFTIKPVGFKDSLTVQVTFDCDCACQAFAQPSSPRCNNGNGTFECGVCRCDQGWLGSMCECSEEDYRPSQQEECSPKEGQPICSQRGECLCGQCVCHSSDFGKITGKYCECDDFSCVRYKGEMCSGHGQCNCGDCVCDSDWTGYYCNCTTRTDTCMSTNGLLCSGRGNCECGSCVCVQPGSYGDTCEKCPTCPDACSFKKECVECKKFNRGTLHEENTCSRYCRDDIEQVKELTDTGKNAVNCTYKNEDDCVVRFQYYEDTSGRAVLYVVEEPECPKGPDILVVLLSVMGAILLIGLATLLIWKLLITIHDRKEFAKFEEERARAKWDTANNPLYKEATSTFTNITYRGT
T1 sequence (P43406 31-885 partner limits assumed): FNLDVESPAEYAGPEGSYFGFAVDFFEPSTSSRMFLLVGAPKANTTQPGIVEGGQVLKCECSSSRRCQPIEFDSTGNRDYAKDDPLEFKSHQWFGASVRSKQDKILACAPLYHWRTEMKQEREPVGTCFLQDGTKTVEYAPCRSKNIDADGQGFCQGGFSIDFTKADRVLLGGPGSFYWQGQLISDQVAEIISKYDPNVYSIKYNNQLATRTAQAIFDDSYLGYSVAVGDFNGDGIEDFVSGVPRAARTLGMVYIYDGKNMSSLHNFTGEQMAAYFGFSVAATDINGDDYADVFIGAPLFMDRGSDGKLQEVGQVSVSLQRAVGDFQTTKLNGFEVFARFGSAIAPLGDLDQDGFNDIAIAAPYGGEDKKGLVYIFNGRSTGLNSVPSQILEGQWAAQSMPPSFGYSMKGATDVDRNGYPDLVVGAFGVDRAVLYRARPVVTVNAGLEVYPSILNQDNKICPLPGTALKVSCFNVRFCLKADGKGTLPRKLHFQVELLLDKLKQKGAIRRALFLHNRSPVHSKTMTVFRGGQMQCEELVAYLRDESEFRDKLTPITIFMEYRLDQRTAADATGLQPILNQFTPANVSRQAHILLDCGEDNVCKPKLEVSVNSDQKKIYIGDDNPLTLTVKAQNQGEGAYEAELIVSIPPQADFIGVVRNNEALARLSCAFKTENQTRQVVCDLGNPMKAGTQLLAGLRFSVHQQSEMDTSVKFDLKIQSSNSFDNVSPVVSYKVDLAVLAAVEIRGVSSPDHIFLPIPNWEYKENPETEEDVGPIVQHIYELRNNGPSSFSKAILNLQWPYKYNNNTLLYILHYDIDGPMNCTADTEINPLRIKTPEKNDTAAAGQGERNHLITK
T1 sequence (P43406 887-1044 partner limits assumed): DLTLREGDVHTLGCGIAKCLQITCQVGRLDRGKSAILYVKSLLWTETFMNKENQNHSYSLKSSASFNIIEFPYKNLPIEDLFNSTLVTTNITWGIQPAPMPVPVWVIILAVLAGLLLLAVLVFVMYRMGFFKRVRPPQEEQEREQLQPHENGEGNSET
Source text: (§1) The invention encompasses methods for identifying antagonists that are immunospecific for integrin αVβ3, particularly for antibodies that specifically bind to the same epitope as VITAXIN® and/or LM609. […] In certain embodiments, amino acid substitutions are made in the subunits of integrin αVβ3, for example to change the ligand specificity of the integrin αVβ3 and/or disrupt the heterodimerization of the subunit chains. Preferably the integrin αVβ3 is human. In specific embodiments, such amino acid substitutions disrupt the specific interaction of certain antagonists of integrin αVβ3 with a particular integrin αVβ3 epitope. In a preferred embodiment, the amino acid substitutions are made within regions of an integrin subunit that confers ligand binding specificity, preferably ligand binding specificity of LM609 and/or VITAXIN®, particularly residues 164-202 of human β3. Alternatively, mouse β chain residues corresponding to residues 164-202 of the human β3 chain are replaced with the residues 164-202 of the human β3 chain. Such mouse-human chimeras can be used to screen for antagonists that bind to the region 164-202 of human β3 but not to mouse integrin αVβ3.
(§2) In addition, the invention provides methods for identifying monoclonal antibodies that bind to the heterodimerized αVβ3 but not the αV or the β3 chains when not included in a heterodimer. […]

[1] = system: integrin αVβ3 with mutated human β3 chain; assay: Antibody binding to integrin αVβ3 heterodimer with human β3 residues substituted with rat residues
Source text: as §1
In preferred embodiments, the amino acid substitutions are made in the β3 subunit. In certain embodiments, human β3 residues are substituted with rat residues as described in Table 2. […] Such substitutions preferred examples but not limiting. Such substituted subunits are merely exemplary and not limiting. Any integrin αVβ3 regions identified to be responsible for antibody binding can be altered with substituted, deleted or inserted residues to characterize binding specificity of various antibodies and to screen for antibodies with the same a similar binding specificity.
In addition, the invention provides methods for identifying monoclonal antibodies that bind to the heterodimerized αVβ3 but not the αV or the β3 chains when not included in a heterodimer. […] The antibodies identified from such screening methods can be useful for the prevention, management and treatment of integrin αVβ3-mediated diseases and disorders, including but not limited to inflammatory diseases, autoimmune disorders, disorders associated with aberrant expression and/or activity of integrin αvβ3, disorders associated with abnormal bone metabolism, disorders associated with aberrant angiogenesis and cancers, or a condition or symptom associated therewith. It is also contemplated that such antibodies can be used in the methods and compositions contemplated by the present invention. […]

[2] = target: T2, modified mouse integrin αVβ3 (mouse-human chimera, human β chain residues 164-202) (Mus musculus, UniProt O54890, A208T/I198L/K199E/N204D/N207T/Q196E/S226T); assay: Antibody binding to modified mouse integrin αVβ3 carrying amino acids 164-202 of the human β chain; conditions: mouse β chain region replaced with amino acids 164-202 of the human β chain
T2 sequence (O54890 26-787 Q196E/I198L/K199E/N204D/N207T/A208T/S226T): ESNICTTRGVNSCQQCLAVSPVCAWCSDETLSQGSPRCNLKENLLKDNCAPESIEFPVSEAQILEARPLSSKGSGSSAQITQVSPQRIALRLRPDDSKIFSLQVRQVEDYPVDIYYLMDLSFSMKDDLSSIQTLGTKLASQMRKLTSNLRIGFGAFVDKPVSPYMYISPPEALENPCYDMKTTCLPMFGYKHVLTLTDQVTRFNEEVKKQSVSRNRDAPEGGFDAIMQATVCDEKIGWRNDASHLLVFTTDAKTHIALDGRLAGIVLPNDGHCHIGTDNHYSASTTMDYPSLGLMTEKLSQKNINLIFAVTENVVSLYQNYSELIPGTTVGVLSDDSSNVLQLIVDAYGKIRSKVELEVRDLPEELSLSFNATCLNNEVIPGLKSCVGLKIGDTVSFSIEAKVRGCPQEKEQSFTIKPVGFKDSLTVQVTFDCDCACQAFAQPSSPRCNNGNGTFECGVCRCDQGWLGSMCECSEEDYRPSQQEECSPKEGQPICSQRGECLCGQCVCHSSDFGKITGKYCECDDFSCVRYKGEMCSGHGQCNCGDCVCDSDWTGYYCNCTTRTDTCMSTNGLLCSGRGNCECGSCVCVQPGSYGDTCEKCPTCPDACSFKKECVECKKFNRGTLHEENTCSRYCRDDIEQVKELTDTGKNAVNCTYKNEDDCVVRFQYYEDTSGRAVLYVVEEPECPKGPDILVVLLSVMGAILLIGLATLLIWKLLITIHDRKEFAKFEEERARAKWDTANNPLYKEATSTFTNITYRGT
T2 sequence (P43406 31-885 partner): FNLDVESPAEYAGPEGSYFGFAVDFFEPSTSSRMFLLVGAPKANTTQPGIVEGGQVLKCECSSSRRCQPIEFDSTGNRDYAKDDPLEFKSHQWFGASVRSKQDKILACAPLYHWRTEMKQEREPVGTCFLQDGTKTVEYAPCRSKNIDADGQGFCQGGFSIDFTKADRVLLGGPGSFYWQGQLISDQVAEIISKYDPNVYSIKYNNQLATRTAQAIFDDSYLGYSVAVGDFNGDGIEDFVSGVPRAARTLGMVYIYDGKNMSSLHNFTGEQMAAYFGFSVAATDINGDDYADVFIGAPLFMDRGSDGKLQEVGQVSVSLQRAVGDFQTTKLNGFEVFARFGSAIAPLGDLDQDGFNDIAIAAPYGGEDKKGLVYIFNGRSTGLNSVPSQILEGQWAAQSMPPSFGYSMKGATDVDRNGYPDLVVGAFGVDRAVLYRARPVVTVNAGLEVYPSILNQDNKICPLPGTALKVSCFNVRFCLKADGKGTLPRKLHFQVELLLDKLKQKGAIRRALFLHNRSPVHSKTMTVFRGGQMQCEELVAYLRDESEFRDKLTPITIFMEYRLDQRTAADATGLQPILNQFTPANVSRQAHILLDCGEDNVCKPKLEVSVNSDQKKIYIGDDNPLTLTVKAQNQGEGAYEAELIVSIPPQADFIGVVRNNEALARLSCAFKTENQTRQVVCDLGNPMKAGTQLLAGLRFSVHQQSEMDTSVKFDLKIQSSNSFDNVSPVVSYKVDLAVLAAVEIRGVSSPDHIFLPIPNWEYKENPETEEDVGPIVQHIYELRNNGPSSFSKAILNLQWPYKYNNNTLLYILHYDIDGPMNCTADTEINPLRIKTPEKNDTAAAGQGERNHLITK
T2 sequence (P43406 887-1044 partner): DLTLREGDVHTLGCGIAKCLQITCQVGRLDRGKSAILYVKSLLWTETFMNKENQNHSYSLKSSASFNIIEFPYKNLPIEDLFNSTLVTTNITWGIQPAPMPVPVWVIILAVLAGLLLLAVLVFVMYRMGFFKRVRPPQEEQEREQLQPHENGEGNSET
Source text: as §1, §2

binding to mouse integrin αVβ3 (mouse integrin αVβ3): do not bind
effect of β3 mutation on antibody binding to integrin αVβ3 ([1]; Mutation A: Glu to Gln at position 171 (E171Q)): disrupts binding
effect of β3 mutation on antibody binding to integrin αVβ3 ([1]; Mutation B: Leu and Glu to Ile and Lys at positions 173 and 174 (L173I, E174K)): disrupt binding
effect of β3 mutation on antibody binding to integrin αVβ3 ([1]; Mutations A and C combined (three substituted residues)): disrupts binding
effect of β3 mutation on antibody binding to the integrin αVβ3 heterodimer ([1]; mutation of residues 171, 173 and/or 174 of the human β3 chain): disrupt binding
binding to modified mouse integrin αVβ3 [2]: do bind
B1: VITAXIN®: humanized monoclonal antibody MEDI-522 (MedImmune) that immunospecifically binds to integrin αVβ3; human IgG1 subclass (antibody, chains of the INN, looked up, V domains shown)
VH: QVQLVESGGGVVQPGRSLRLSCAASGFTFSSYDMSWVRQAPGKGLEWVAKVSSGGGSTYYLDTVQGRFTISRDNSKNTLYLQMNSLRAEDTAVYYCARHLHGSFASWGQGTTVTVSS
VL: EIVLTQSPATLSLSPGERATLSCQASQSISNFLHWYQQRPGQAPRLLIRYRSQSISGIPARFSGSGSGTDFTLTISSLEPEDFAVYYCQQSGSWPLTFGGGTKVEIK
